Test results as given in publication PMC10484726, “Archaeal Hel308 suppresses recombination through a catalytic switch that controls DNA annealing”.
Where a chain is given by its changes, count along the chain named.

Key:
Conditions in all cases: protein: recombinant; tags: N-terminal His6; label: Cy5 (end label); fork
Mth-Hel308 Y586A = target: T1, Mth-Hel308 Y586A (Methanothermobacter thermautotrophicus, UniProt O26901 1-690, Y586A); assay: EMSA; 5 mM EDTA; 25 nM DNA; similar to wild type; EMSA: 20 mM Tris-HCl pH 7.5, 100 ug/ml BSA, 7% glycerol, 25 mM DTT, 5 mM EDTA, 25 nM Cy5-DNA; 5% TBE gel; no added salt stated; 37 C 10 min stated for duplex DNA reactions
T1 sequence: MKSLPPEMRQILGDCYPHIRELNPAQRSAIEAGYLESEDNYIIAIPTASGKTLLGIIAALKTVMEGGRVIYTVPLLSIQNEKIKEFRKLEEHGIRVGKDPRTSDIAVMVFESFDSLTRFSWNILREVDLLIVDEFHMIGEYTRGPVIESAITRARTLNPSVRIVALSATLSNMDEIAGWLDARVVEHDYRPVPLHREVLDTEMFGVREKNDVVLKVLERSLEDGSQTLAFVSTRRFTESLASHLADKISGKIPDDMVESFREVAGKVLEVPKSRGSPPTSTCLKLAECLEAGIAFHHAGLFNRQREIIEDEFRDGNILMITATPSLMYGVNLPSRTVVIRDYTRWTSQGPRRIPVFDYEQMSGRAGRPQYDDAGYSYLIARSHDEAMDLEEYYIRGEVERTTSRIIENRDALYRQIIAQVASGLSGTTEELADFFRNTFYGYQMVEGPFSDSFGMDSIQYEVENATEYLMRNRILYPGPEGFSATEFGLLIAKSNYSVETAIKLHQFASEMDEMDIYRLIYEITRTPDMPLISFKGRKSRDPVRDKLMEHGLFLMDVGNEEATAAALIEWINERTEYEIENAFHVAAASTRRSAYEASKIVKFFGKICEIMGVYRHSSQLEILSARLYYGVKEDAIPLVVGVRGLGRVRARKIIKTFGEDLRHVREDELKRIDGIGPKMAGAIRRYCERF

Mth-Hel308 F295A = target: T2, Mth-Hel308 F295A (Methanothermobacter thermautotrophicus, UniProt O26901 1-690, F295A); assay: EMSA; 5 mM EDTA; 25 nM DNA; EMSA: 20 mM Tris-HCl pH 7.5, 100 ug/ml BSA, 7% glycerol, 25 mM DTT, 5 mM EDTA, 25 nM Cy5-DNA; 5% TBE gel; no added salt stated; 37 C 10 min stated for duplex DNA reactions
T2 sequence: T1 sequence with F295A, A586Y

Mth-Hel308 R591A = target: T3, Mth-Hel308 R591A (Methanothermobacter thermautotrophicus, UniProt O26901 1-690, R591A); assay: as above
T3 sequence: T1 sequence with A586Y, R591A

B1: forked DNA substrate (dsDNA)
DNA 1: GTCGGATCCTCTAGACAGCTCCATGATCACTGGCACTGGTAGAATTCGGC
DNA 2: CAACGTCATAGACGATTACATTGCTACATGGAGCTGTCTAGAGGATCCGA
- binding result (Mth-Hel308 Y586A): binds
- Kd (Mth-Hel308 F295A): 19.3 nM
- binding result (Mth-Hel308 R591A): binds
